According to publication PMC5944358 (The Biochemical journal, 2018):
Read-outs that look alike come from different tables or passages of the source.

Key:
[1] = molecular target: T1, HIV-1 YU2 gp120 (HIV-1 YU2, UniProt P35961 32-498); assay: SPR
[2] = molecular target: T1, HIV-1 YU2 gp120; assay: ELISA
[3] = molecular target: T1, HIV-1 YU2 gp120; assay: ITC
[4] = molecular target: T1, HIV-1 YU2 gp120; assay: SPR; remark: listed apart in the source

Row | Binder | Kd [1] [nM] | koff [1] [s⁻¹] | kon [1] [M⁻¹ s⁻¹] | IC50 [2] [nM] | Kd [3] [nM] | stoichiometry N [3] | koff [4] [s⁻¹] | kon [4] [M⁻¹ s⁻¹] | Kd [4] [nM] | k1 (step 1, association) [4] [M⁻¹ s⁻¹] | k2 (step 2, forward) [4] [M⁻¹ s⁻¹] | k-1 (step 1, dissociation) [4] [s⁻¹] | k-2 (step 2, reverse) [4] [s⁻¹]
1 | cyanovirin-N (CVN) (natural protein) LGKFSQTCYNSAIQGSVLTSTCERTNGGYNTSSIDLNSVIENVDGSLKWQPSNFIETCRNTQLAGSSELAAECKTRAQQFVSTKINLDDHIANIDGTLKYE | 8.65 | 1.48e-05 | 1710 |  |  |  |  |  |  |  |  |  | 
2 | Microvirin (MVN) (natural protein) MPNFSHTCSSINYDPDSTILSAECQARDGEWLPTELRLSDHIGNIDGELQFGDQNFQETCQDCHLEFGDGEQSVWLVCTCQTMDGEWKSTQILLDSQIDNNDSQLEIG | 120 |  |  | 68 ± 8 | 225 ± 10 | 1.29 ± 0.04 protein:gp120 | 0.000445 | 4160 |  |  |  |  | 
3 | MVN_Q81K (natural protein) MPNFSHTCSSINYDPDSTILSAECQARDGEWLPTELRLSDHIGNIDGELQFGDQNFQETCQDCHLEFGDGEQSVWLVCTCKTMDGEWKSTQILLDSQIDNNDSQLEIG |  |  |  |  |  |  | 0.000368 | 9180 | 45 | 1.73e+06 | 0.0048 | 0.16 | 0.0023
4 | MVN(Q81K/M83R) (natural protein) MPNFSHTCSSINYDPDSTILSAECQARDGEWLPTELRLSDHIGNIDGELQFGDQNFQETCQDCHLEFGDGEQSVWLVCTCKTRDGEWKSTQILLDSQIDNNDSQLEIG |  |  |  |  | 75 ± 11 | 1.31 ± 0.132 protein:gp120 | 3.3e-05 | 1880 | 21 | 310000 | 0.0051 | 0.03 | 0.0011
5 | MVN_G43E (natural protein) MPNFSHTCSSINYDPDSTILSAECQARDGEWLPTELRLSDHIENIDGELQFGDQNFQETCQDCHLEFGDGEQSVWLVCTCQTMDGEWKSTQILLDSQIDNNDSQLEIG |  |  |  |  |  |  | 0.00061 | 2020 | 360 | 340000 | 0.0049 | 0.244 | 0.0025
6 | MVN_G85Q (natural protein) MPNFSHTCSSINYDPDSTILSAECQARDGEWLPTELRLSDHIGNIDGELQFGDQNFQETCQDCHLEFGDGEQSVWLVCTCQTMDQEWKSTQILLDSQIDNNDSQLEIG |  |  |  |  |  |  | 0.000191 | 2960 | 72 | 290000 | 0.0089 | 0.071 | 0.0027
7 | MVN_G43E/Q81K/M83R/G85Q (natural protein) MPNFSHTCSSINYDPDSTILSAECQARDGEWLPTELRLSDHIENIDGELQFGDQNFQETCQDCHLEFGDGEQSVWLVCTCKTRDQEWKSTQILLDSQIDNNDSQLEIG |  |  |  |  |  |  | 0.000156 | 1490 | 100 | 240000 | 0.0063 | 0.078 | 0.002
8 | MVN_Q81K/M83R/G85Q (natural protein) MPNFSHTCSSINYDPDSTILSAECQARDGEWLPTELRLSDHIGNIDGELQFGDQNFQETCQDCHLEFGDGEQSVWLVCTCKTRDQEWKSTQILLDSQIDNNDSQLEIG |  |  |  |  |  |  | 0.000232 | 3240 | 77 | 340000 | 0.0055 | 0.058 | 0.0041
9 | MVN_G43E/G85Q (natural protein) MPNFSHTCSSINYDPDSTILSAECQARDGEWLPTELRLSDHIENIDGELQFGDQNFQETCQDCHLEFGDGEQSVWLVCTCQTMDQEWKSTQILLDSQIDNNDSQLEIG |  |  |  |  |  |  | 0.000122 | 710 | 180 | 90000 | 0.0077 | 0.051 | 0.0024
10 | MVN_G43E/Q81K (natural protein) MPNFSHTCSSINYDPDSTILSAECQARDGEWLPTELRLSDHIENIDGELQFGDQNFQETCQDCHLEFGDGEQSVWLVCTCKTMDGEWKSTQILLDSQIDNNDSQLEIG |  |  |  |  |  |  | 0.000173 | 1660 | 120 | 180000 | 0.0082 | 0.064 | 0.0027
11 | MVN_M83R (natural protein) MPNFSHTCSSINYDPDSTILSAECQARDGEWLPTELRLSDHIGNIDGELQFGDQNFQETCQDCHLEFGDGEQSVWLVCTCQTRDGEWKSTQILLDSQIDNNDSQLEIG |  |  |  |  |  |  | 0.000145 | 2990 | 52 | 290000 | 0.0076 | 0.05 | 0.0029
12 | MVN_Q81K/G85Q (natural protein) MPNFSHTCSSINYDPDSTILSAECQARDGEWLPTELRLSDHIGNIDGELQFGDQNFQETCQDCHLEFGDGEQSVWLVCTCKTMDQEWKSTQILLDSQIDNNDSQLEIG |  |  |  |  |  |  | 9.4e-05 | 880 | 101 | 160000 | 0.0041 | 0.053 | 0.00178
13 | MVN_G43E/M83R (natural protein) MPNFSHTCSSINYDPDSTILSAECQARDGEWLPTELRLSDHIENIDGELQFGDQNFQETCQDCHLEFGDGEQSVWLVCTCQTRDGEWKSTQILLDSQIDNNDSQLEIG |  |  |  |  |  |  | 0.000103 | 980 | 130 | 110000 | 0.0075 | 0.045 | 0.0023
